Data taken from US20260275311, “CRISPR NUCLEASE POLYPEPTIDES AND GENE EDITING SYSTEMS COMPRISING SUCH” (ARBOR BIOTECHNOLOGIES, INC., published 2026).
Substitutions are numbered along the chain they refer to.

Tests used:
Test in all cases: cell_activity
Conditions in all cases: PAM TTAAA; HEK293T
Nuclease M A373R A373R = tested on: T1, Nuclease M A373R A373R
T1 sequence: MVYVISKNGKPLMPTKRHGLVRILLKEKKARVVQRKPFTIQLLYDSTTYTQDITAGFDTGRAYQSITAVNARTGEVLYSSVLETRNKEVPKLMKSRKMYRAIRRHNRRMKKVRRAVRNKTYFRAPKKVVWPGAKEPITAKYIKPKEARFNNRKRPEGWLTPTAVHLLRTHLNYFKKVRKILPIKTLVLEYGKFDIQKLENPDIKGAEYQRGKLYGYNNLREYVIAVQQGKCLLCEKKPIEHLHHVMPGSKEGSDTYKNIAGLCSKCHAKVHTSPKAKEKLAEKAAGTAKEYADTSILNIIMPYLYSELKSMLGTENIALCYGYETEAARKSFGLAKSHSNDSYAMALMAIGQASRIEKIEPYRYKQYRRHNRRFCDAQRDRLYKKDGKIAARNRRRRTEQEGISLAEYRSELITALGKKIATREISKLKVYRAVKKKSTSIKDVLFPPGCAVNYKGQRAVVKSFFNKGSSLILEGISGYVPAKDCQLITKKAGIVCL

Nuclease M E88R E88R = tested on: T2, Nuclease M E88R E88R
T2 sequence: T1 sequence with E88R, R373A

Nuclease M N371R N371R = tested on: T3, Nuclease M N371R N371R
T3 sequence: T1 sequence with N371R, R373A

Nuclease M L92R L92R = tested on: T4, Nuclease M L92R L92R
T4 sequence: T1 sequence with L92R, R373A

Nuclease M E83R E83R = tested on: T5, Nuclease M E83R E83R
T5 sequence: T1 sequence with E83R, R373A

Nuclease M S95R S95R = tested on: T6, Nuclease M S95R S95R
T6 sequence: T1 sequence with S95R, R373A

“GAGCCUGGUCCAUGGAGAGUGUCAACUACCCCCGUCUAAAGACGGAGGCAUGAGGUUUCGUAACCAAGUGUUGUACCUGCGGGUACAGUAGUUGAACAGGCGGCGAUGCGGCUGGGCACUCCAGGAUGCCACUCCCAGUCCCGGACACUGCCGACGAGCCGCAUCAAGCCGGGGGAGACCAACCGGCUAACGAUAGCCGAGCAAUUACCUAAAAAGAGGUGCAAAGGAAAUGGUAU / GAGCCTGGTCCATGGAGAGT / ACTCTCCATGGACCAGGCTC [Nuclease M VEGFA-T5 guide ; Nuclease M VEGFA-T5 target]” was tested, and the binding signal (fold vs Nuclease M) (Nuclease M A373R A373R) was 1.53, the binding signal (fold vs Nuclease M) (Nuclease M E88R E88R) was 2.09 and the binding signal (fold vs Nuclease M) (Nuclease M N371R N371R) was 1.65. The binding signal (fold vs Nuclease M) (Nuclease M L92R L92R) was 1.81, the binding signal (fold vs Nuclease M) (Nuclease M E83R E83R) was 1.71 and the binding signal (fold vs Nuclease M) (Nuclease M S95R S95R) was 2.05.
